Results on six molecules are retold here after publication PMC12022753, “Mechanism of Cas9 inhibition by AcrIIA11”.

By stoichiometry N is commonly meant a count of units in the complex or per binding partner.

Series [1] has as its target SaCas9;AcrIIA11 (Staphylococcus aureus;) (UniProt J7RUA5). Description: single-molecule DNA curtains. The note with it: 100 mM KCl, 5 mM MgCl2, 1 mM DTT, 37 C, sgRNA EMSA: 20 mM Tris-HCl pH 8, 5% glycerol, 1 mM NaCl. Background: A gel shift assay detects complexes by their altered migration in electrophoresis.
Series [2] addresses T1, SaCas9 (Staphylococcus aureus, UniProt J7RUA5 1-1053).
T1 sequence: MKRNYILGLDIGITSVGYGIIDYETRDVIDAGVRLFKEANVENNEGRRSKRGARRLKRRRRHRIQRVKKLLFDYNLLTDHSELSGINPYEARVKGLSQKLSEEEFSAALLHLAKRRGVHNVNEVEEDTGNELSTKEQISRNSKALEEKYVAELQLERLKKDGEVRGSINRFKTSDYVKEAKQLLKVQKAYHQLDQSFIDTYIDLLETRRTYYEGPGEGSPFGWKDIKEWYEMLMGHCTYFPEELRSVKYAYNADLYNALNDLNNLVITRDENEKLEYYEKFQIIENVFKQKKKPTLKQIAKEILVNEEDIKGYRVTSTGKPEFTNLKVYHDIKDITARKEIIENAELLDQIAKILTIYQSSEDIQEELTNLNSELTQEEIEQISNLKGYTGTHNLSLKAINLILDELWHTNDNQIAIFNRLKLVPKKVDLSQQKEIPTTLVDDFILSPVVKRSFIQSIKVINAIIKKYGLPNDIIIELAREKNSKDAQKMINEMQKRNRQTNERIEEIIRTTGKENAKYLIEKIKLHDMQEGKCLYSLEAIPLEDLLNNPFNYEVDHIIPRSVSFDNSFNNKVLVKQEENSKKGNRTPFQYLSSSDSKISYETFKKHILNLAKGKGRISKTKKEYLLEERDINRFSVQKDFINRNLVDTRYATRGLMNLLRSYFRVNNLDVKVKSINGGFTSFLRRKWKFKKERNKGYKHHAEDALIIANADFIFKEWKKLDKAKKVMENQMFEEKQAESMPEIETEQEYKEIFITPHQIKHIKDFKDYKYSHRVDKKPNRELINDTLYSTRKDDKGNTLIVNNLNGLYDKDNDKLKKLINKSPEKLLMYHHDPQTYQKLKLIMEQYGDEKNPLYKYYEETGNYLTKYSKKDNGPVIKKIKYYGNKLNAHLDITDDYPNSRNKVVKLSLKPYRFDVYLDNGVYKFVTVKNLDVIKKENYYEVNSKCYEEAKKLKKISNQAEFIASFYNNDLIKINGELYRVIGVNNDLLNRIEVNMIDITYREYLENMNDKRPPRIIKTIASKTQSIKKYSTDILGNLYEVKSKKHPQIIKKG
Description: single-molecule DNA curtains. As to conditions: EMSA: 20 mM Tris-HCl pH 8, 5% glycerol, 100 mM KCl, 5 mM MgCl2, 1 mM DTT, 37 C, 1 mM NaCl.

Series [3] deals with dSaCas9 (nuclease-dead SaCas9);AcrIIA11 D10A;N580A (Staphylococcus aureus;) (UniProt J7RUA5). Description: EMSA. As to conditions: 100 mM KCl, 5 mM MgCl2, 1 mM DTT, 37 C, sgRNA EMSA: 20 mM Tris-HCl pH 8, 5% glycerol, 1 mM NaCl.
In series [4] the target is T1, SaCas9. The series can be described thus: EMSA; RNP preformed with 490 nM SaCas9; EMSA: 20 mM Tris-HCl pH 8, 5% glycerol, 100 mM KCl, 5 mM MgCl2, 1 mM DTT, 37 C; sgRNA EMSA: 20 mM Tris-HCl pH 8, 5% glycerol, 1 mM NaCl, 1 mM DTT, 37 C; curtains (dSaCas9): 40 mM Tris-HCl pH 8, 2 mM MgCl2, 100 mM NaCl, 1 mM DTT, 0.2 mg/ml BSA. The note with it: protein: recombinant, tags: N-terminal 3xFLAG, 6xHis-TwinStrep-SUMO removed, label: 5'-32P.

The next series has as its target AcrIIA11-6xHis. The series can be described thus: negative-stain electron microscopy; SaCas9 RNP mixed with ~2-fold excess of AcrIIA11-6xHis, passed over Superose 6 (peak eluted at a higher molecular weight than SaCas9 RNP); 200 mM NaCl, 25 mM HEPES pH 7.5, 5% glycerol, 2 mM DTT; low-resolution 3D reconstruction from 16 761 particles with the SaCas9 RNP crystal structure docked.

On to “48.5 kb DNA (lambda) with 29.4 kb-target sgRNA”, for which the binding signal (% of molecules at target within 90 s) is 12 in series [1] (EMSA: 20 mM Tris-HCl pH 8, 5% glycerol) and 43 with SaCas9 [2] (sgRNA EMSA: 20 mM Tris-HCl pH 8, 5% glycerol). “AAGAACGCCTCGCACACTCTTTTGACTTGATCGGCACGTAAGAGGTTCCAACTTTCACCATAATGAAATAAGATCACTACTTGGGTTATTTTTTGAGTTATCGAGATTTTCAGACTCTGTTATTCGGCGGTT (double strand) [SMART PCR DNA with noncomplementary sgRNA]” displayed a binding signal in series [3] (2 uM AcrIIA11, noncomplementary, EMSA: 20 mM Tris-HCl pH 8, 5% glycerol) of 32 % DNA bound. The molecule “TTTGGGTATTGGGTATTGGGTTTTGGGTTTGGGTTATTTT (double strand) [5x strong PAM DNA (KD201/KD202), nontarget]” yielded a binding signal in series [3] (25 nM dSaCas9 and sgRNA, 5 uM AcrIIA11, EMSA: 20 mM Tris-HCl pH 8, 5% glycerol) of 90 % DNA bound. With “lambda DNA with scrambled sgRNA (no target)”, the binding signal in series [1] (scrambled sgRNA, AcrIIA11, EMSA: 20 mM Tris-HCl pH 8, 5% glycerol) is 98 s (lifetime). The molecule also showed a binding signal (s (half-dissociation lifetime)) with SaCas9 [2] (scrambled sgRNA) of 61.

B1: SaCas9 SMART target sgRNA (structured_RNA)
RNA: UAAUGAAAUAAGAUCACUACGUUUUAGUACUCUGGAAACAGAAUCUACUAAAACAAGGCAAAAUGCCGUGUUUAUCUCGUCAACUUGUUGGCGAGAU
Take B1: the binding result with SaCas9 [4] was “binds”.

B2: SaCas9 RNP from TS-SUMO-SaCas9-sgRNA (enzyme)
chain: MKRNYILGLDIGITSVGYGIIDYETRDVIDAGVRLFKEANVENNEGRRSKRGARRLKRRRRHRIQRVKKLLFDYNLLTDHSELSGINPYEARVKGLSQKLSEEEFSAALLHLAKRRGVHNVNEVEEDTGNELSTKEQISRNSKALEEKYVAELQLERLKKDGEVRGSINRFKTSDYVKEAKQLLKVQKAYHQLDQSFIDTYIDLLETRRTYYEGPGEGSPFGWKDIKEWYEMLMGHCTYFPEELRSVKYAYNADLYNALNDLNNLVITRDENEKLEYYEKFQIIENVFKQKKKPTLKQIAKEILVNEEDIKGYRVTSTGKPEFTNLKVYHDIKDITARKEIIENAELLDQIAKILTIYQSSEDIQEELTNLNSELTQEEIEQISNLKGYTGTHNLSLKAINLILDELWHTNDNQIAIFNRLKLVPKKVDLSQQKEIPTTLVDDFILSPVVKRSFIQSIKVINAIIKKYGLPNDIIIELAREKNSKDAQKMINEMQKRNRQTNERIEEIIRTTGKENAKYLIEKIKLHDMQEGKCLYSLEAIPLEDLLNNPFNYEVDHIIPRSVSFDNSFNNKVLVKQEENSKKGNRTPFQYLSSSDSKISYETFKKHILNLAKGKGRISKTKKEYLLEERDINRFSVQKDFINRNLVDTRYATRGLMNLLRSYFRVNNLDVKVKSINGGFTSFLRRKWKFKKERNKGYKHHAEDALIIANADFIFKEWKKLDKAKKVMENQMFEEKQAESMPEIETEQEYKEIFITPHQIKHIKDFKDYKYSHRVDKKPNRELINDTLYSTRKDDKGNTLIVNNLNGLYDKDNDKLKKLINKSPEKLLMYHHDPQTYQKLKLIMEQYGDEKNPLYKYYEETGNYLTKYSKKDNGPVIKKIKYYGNKLNAHLDITDDYPNSRNKVVKLSLKPYRFDVYLDNGVYKFVTVKNLDVIKKENYYEVNSKCYEEAKKLKKISNQAEFIASFYNNDLIKINGELYRVIGVNNDLLNRIEVNMIDITYREYLENMNDKRPPRIIKTIASKTQSIKKYSTDILGNLYEVKSKKHPQIIKKG
As for B2, in the series with AcrIIA11-6xHis, the stoichiometry N is 1.
